Kd and fold increase of Kd against T. truncatus data for two substances are collected here from PMC5576371.

This experiment deals with Calmodulin (His-CaM) (UniProt P0DP23). In words: BLI; ForteBio Octet Red; increasing concentrations of ASPM IQ motif (GST-IQ) to CaM; 1:1 binding model; Kd calculated as Koff/Kon.

As usually defined, the Kd is the free concentration of one partner at which half of the binding sites on the other are occupied at equilibrium, for simple one-to-one binding. On to “GST-IQ fusion protein, ASPM 23rd IQ motif and its adjacent 16 amino acid motif, Tursiops truncatus (domain or fragment)”, for which the Kd is 17.7 nM.
Regarding “GST-IQ fusion protein, ASPM 23rd IQ motif and its adjacent 16 amino acid motif, Physeter macrocephalus (domain or fragment)”, the fold increase of Kd against T. truncatus is 2.2 fold.
